The supplement of paper PMC10201428
± gives the standard deviation of the averaged measurements.

Each sequence was assayed on VchCAST RNA-guided transposition machinery (E. coli BL21(DE3) host, lacZ target) (assay: relative integration efficiency (T-LR orientation) vs wild-type transposon end (log2 (normalized fold change)); transposon end mutated: right end (5 bp flank + 75 bp right end); higher = more efficient transposition).
Outline: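 Pools of 1549 left-end or 1849 right-end barcoded transposon variants were cloned into a pUC57 mini-transposon donor and co-transformed into E. coli BL21(DE3) with a T7-driven effector plasmid carrying a CRISPR array, tniQ-cas8-cas7-cas6 and tnsA-tnsB-tnsC. Plating used 0.1 mM IPTG at 37°C for 18 h, and input plasmids and genomic integration junctions were PCR-amplified for Illumina sequencing, with two biological output replicates and four reference barcodes. Relative integration efficiency is the log-transformed fold change of output over input barcode abundance, normalised to the reference barcodes.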

Sequence	relative integration efficiency (log2)
ACATTTGTTGATACAACCATAAAATGATAATTACACCCATAAATTGATAATTATCACACCCATAAATTGATATTTAAGAGGATCATAGTCAGACCAACATTGCTACGACCCGTATTCGCACCGACAC	0.08 ± 0.011
ACATTTGTTGATACAACCATAAAAGGATAATTACCCCCATCAATTGATAATTATCACACCCAATTTAACTATAACGCTCTGATCATAGTCAGACCAACATTGCTACGACCCGTATTCGCACCGACAC	-0.104 ± 0.42
ACATTTGTTGATACAACCATAAAATGATAATTACACCCATAAATTGATAATTATCACACCCATAAATTGATATTGCCTCTGATCATAGTCACAACCATAAAATGATAATTAGACCAAGCACCGACAC	-0.387 ± 0.086
ACATTTGTTGATACAACCATAAAATGATAATTATAATTATCATTTTATGGTTGTCATAATTATCATTTTATGGTTGCTCTGATCATAGTCAGACCAACATTGCTACGACCCGTATTCGCACCGACAC	0.158 ± 0.76
ACATTTGTTGATACAACCATAAAATGATAATTACACCCATAAATTGATAATTATCACACCGTTAAATTGATATTGCCTCTGATCATAGTCAGACCAACATTGCTACGACCCGTATTCGCACCGACAC	1.85 ± 0.26
ACATTTGTTGATACAACCATTAAATGCTAATTCCACCCATAAATTGATAATTATCACACCCAATTTAACTATAACGCTCTGATCATAGTCAGACCAACATTGCTACGACCCGTATTCGCACCGACAC	2.09 ± 0.22
ACATTTGTTCATACAACCCTAAAATGATAATTACACCCATAAATGGATAATTATCACCCCCAATTTAACTATAACGCTCTGATCATAGTCAGACCAACATTGCTACGACCCGTATTCGCACCGACAC	-2.74 ± 0.46
ACATTTGTTGATACAACCATAAGTTGATATTTTCACCCATAAATTGATATTGCTCACACCCATAAATTGATATTGCCTCTGATCATAGTCAGACCAACATTGCTACGACCCGTATTCGCACCGACAC	0.258 ± 0.12
ACATTTGTTGATATGTTGATCAACCATAAAATGATAATTACACCCATAAATTGATAATTATCACACCCATAAATTGATATTGCCTCTGATCATAGTCAGACCAACATTGCTACGACCCGTATTCGCA	-3.71 ± 0.28
ACATTTGTTGATACAACCATAAAATGATAATTACTCTGATCATAGTCACACCCATAAATTGATAATTATCAGTGGGTATTTAACTATAACGGACCAACATTGCTACGACCCGTATTCGCACCGACAC	-0.9229 ± 0.0035
ACATTTGTTGATACCACCATAAAATGATAATTCCACCCATACATTGATAATTATCACACCCAATTTAACTATAACGCTCTGATCATAGTCAGACCAACATTGCTACGACCCGTATTCGCACCGACAC	0.789 ± 0.33
ACATTTGTTGATACAACCATAAAATGATAATTACACCCATAAATTGATAATTATCACACCCATAAATTGATATTGCCTCTTCATGTGAGCCCAGGCAGTCCTGGGCATCAATTTTCAGCACCGACAC	0.0484 ± 0.15
ACATTTGTTGATACACCCATAAATTGATATTGCCACCCATAAATTGATATTGCTCACAACCATATATTGATATCTCCTCTGATCATAGTCAGACCAACATTGCTACGACCCGTATTCGCACCGACAC	0.239 ± 0.14
ACATTTGTTGATACAACCATAAAGTGATATTTACAACCATATATTGATATCTCTCACAACCATATATTGATATCTCCTCTGATCATAGTCAGACCAACATTGCTACGACCCGTATTCGCACCGACAC	0.32 ± 0.11
ACATTTGTTGATACAACCATAAAATGATAATTACACCCATAAATTGATAATTATCAACAAACGCCCGGTCGCGGTAAGAGGATCATAGTCAGACCAACATTGCTACGACCCGTATTCGCACCGACAC	2.49 ± 0.05
ACATTTGTTGATACACCCATAAATTGATATTGCCAACCATAAGTTGATATTTTTCACAACCATAAAGTGATATTTACTCTGATCATAGTCAGACCAACATTGCTACGACCCGTATTCGCACCGACAC	-0.457 ± 0.31

Sequence	relative integration efficiency (log2)
ACATTTGTTGATACAACCATAAAATGATAATTACACCCATAAATTGATAATTATCACACCCATAAATTGATATTGCCAACCATAAAATGATAATTACTCTGATCATAGTCAGACCAAGCACCGACAC	-0.138 ± 0.05
ACATTTGTTGATACAACCATTTTTTGATAATTACACCCATTTTATGATAATTATCACACCCATTTTATGATATTGCCTCTGATCATAGTCAGACCAACATTGCTACGACCCGTATTCGCACCGACAC	-1.01 ± 0.052
ACATTTGTTGATACAACCATAAATTGATAATTACACCCATAAAATGATAATTATCACACCCATAAAATGATATTGCCTCTGATCATAGTCAGACCAACATTGCTACGACCCGTATTCGCACCGACAC	-0.368 ± 0.16
ACATTTGTCGATACAACCATAAAATGATAATTCACCCATAAATTGATAATTATCACACCCCAATTTAACTATAACGCTCTGATCATAGTCAGACCAACATTGCTACGACCCGTATTCGCACCGACAC	1.05 ± 0.034
ACATTTGTGGATACAACCATAAAACGATAATTACACCCATAAATTCATCATTATCACACCCAATTTAACTATAACGCTCTGATCATAGTCAGACCAACATTGCTACGACCCGTATTCGCACCGACAC	1.17 ± 0.22
ACATTTGTTGATACAACCATATATTGATATCTCCAACCATATATTGATATCTCTCACAACCATAAAATGATAATTACTCTGATCATAGTCAGACCAACATTGCTACGACCCGTATTCGCACCGACAC	-0.08 ± 0.5
ACATTTGTTGATACAACCATAAAATGATAATTACACCCATAAATTGATAATTATCACACCCATAAATTGATATGTAAGAGGATCATAGTCAGACCAACATTGCTACGACCCGTATTCGCACCGACAC	0.00487 ± 0.23
ACATTTGTTGATACAACCATAAAATGATAATTAATAATTATTTATAATCAGCAACTTAACCACACCCATAAATTGATAATTATCACACCCATAAATTGATATTGCCTCTGATCATAGTCAGACCAAC	-0.704 ± 0.18
ACATTTGTTGATACAACCATAAAATGATAATTACACCGTATAATTGATAATTATCACACCCATAAATTGATATTGCCTCTGATCATAGTCAGACCAACATTGCTACGACCCGTATTCGCACCGACAC	-1.63 ± 0.12
ACATTTGTTGATACAACCATAAGTTGATATTTTCACCCATAAATTGATAATTATCACAACCATAAAATGATAATTACTCTGATCATAGTCAGACCAACATTGCTACGACCCGTATTCGCACCGACAC	-0.584 ± 0.047
ACATTTGTTGATACAACCATAAAAGGATAATTACACCCATAAATGGATAATTATCACACCCATAAATGGATATTGCCTCTGATCATAGTCAGACCAACATTGCTACGACCCGTATTCGCACCGACAC	-0.23 ± 0.13
ACATTTGTTGATACAACCATAAAAGGATCATTACCCCCATCAATTGATAATTATCCCACCCCATTTAACTATAACGCTCTGATCATAGTCAGACCAACATTGCTACGACCCGTATTCGCACCGACAC	-1.31 ± 0.15
ACATTTGTCGATACAACCATAAAATGATAATTACACCCATAAATTGATAATTATCACCCCCAATTTAACTATAACGCTCTGATCATAGTCAGACCAACATTGCTACGACCCGTATTCGCACCGACAC	2.59 ± 0.2
ACATTTGTTGATACAACCAGCCCCGTCGCCGGCACAAACGCCCGGTCGCCGGCGACACAAACGCCCGGTCGCGGTAAGAGGATCATAGTCAGACCAACATTGCTACGACCCGTATTCGCACCGACAC	-6.28 ± 0.75
ACATTTGTTGATACAACCATAAAATGATAATTACACCGTTAAATTGATAATTATCACACCCATAAATTGATATTGCCTCTGATCATAGTCAGACCAACATTGCTACGACCCGTATTCGCACCGACAC	-1.18 ± 0.3
ACATTTGTTGATACAACCATCAAATGATAATTCCACCCATACATTGATAATTATCACACCCAATTTAACTATAACGCTCTGATCATAGTCAGACCAACATTGCTACGACCCGTATTCGCACCGACAC	-0.154 ± 0.093
